# Laboratory results reported in patent publication US20240335548A1, “MACROMOLECULES” (Starpharma Pty Ltd, priority 2011, published 2024).
# Tested on: not listed separately
# Experiment: Water solubility study on drug loaded dendrimers
# Assay type: physicochemical
# Settings: not given
# Procedure: Protocol: To 30 mg of dendrimer (freeze-dried from water) was added 100 μL of deionised water. After mixing for 10 minutes, additional aliquots of water (10-30 μL per addition) were added with vortexing and incubation for 10 mins until full dissolution was obtained. This amount is represented in Table 1 as the water solubility of the dendrimer. The equivalent drug solubility is determined by multiplying the % drug loading/100 and is represented in Table 1 (column 3) as Equivalent drug solubility on dendrimer. Finally, the fold increase is obtained by dividing the Equivalent drug solubility on dendrimer by the solubility of the drug and is represented in Table 1 (column 4).
Substance,Equivalent drug solubility on dendrimer [mg/mL],Fold increase in drug solubility,Water solubility of dendrimer [mg/mL]
BHALys[Lys]32[α-DGA-Testosterone]32[ε-PEG570]32 [Example 21],14.8,618,>81
BHALys[Lys]32[α-DGA-Testosterone]32[ε-PEG1100]32 [20 (b)],11.5,482,>75
BHALys[Lys]32[α-Glu-PTX]32[ε-PEG2300]32 [Example 12],,,15
BHALys[Lys]32[α-Glu-Testosterone]32[ε-PEG570]32 [Example 23],26.6,1109,>125
BHALys[Lys]32[α-Glu-Testosterone]32[ε-PEG1100]32 [22 (b)],14.7,610,>89
BHALys[Lys]32[α-PSSP-DTX]32[ε-PEG1100]32 [2 (b)],,,57

# Same assay, conditions: deionised water, until full dissolution
row,Substance,Water solubility of dendrimer [mg/mL]
1,BHALys[Lys]32[α-4-HSBA-Cp-DTX]32[ε-PEG1100]32 [Example 4 (c)],109
2,BHALys[Lys]32[α-Glu-DTX]32[ε-PEG1100]32 [5 (b)],214
3,BHALys[Lys]32[α-MIDA-DTX]32[ε-PEG1100]32 [6 (b)],100

# Same assay, conditions: equivalent drug solubility divided by solubility of the drug
row,Substance,Fold increase in drug solubility
1,BHALys[Lys]32[α-Glu-DTX]32[ε-PEG1100]32 [5 (b)],4000
2,BHALys[Lys]32[α-Glu-PTX]32[ε-PEG2300]32 [Example 12],10000
3,BHALys[Lys]32[α-MIDA-DTX]32[ε-PEG1100]32 [6 (b)],6400
4,BHALys[Lys]32[α-PSSP-DTX]32[ε-PEG1100]32 [2 (b)],2800

# Same assay, conditions: water solubility x % drug loading/100
row,Substance,Equivalent drug solubility on dendrimer [mg/mL]
1,BHALys[Lys]32[α-4-HSBA-Cp-DTX]32[ε-PEG1100]32 [Example 4 (c)],22
2,BHALys[Lys]32[α-Glu-DTX]32[ε-PEG1100]32 [5 (b)],75
3,BHALys[Lys]32[α-Glu-PTX]32[ε-PEG2300]32 [Example 12],3
4,BHALys[Lys]32[α-MIDA-DTX]32[ε-PEG1100]32 [6 (b)],32
5,BHALys[Lys]32[α-PSSP-DTX]32[ε-PEG1100]32 [2 (b)],14

# Tested on: not listed separately
# Experiment: Plasma stability study: docetaxel release in mouse plasma
# Assay type: in vitro ADME
# Settings: 0.5 hours, 37° C.
# Procedure: Protocol: To 0.5 mL of mouse plasma was added 0.1 mL of dendrimer solution (2 mg/mL, drug equivalent in saline). The mixtures were vortexed (30 s) then incubated at 37° C. At various timepoints (0.5, 2.5, 4.5, 22 hours) 0.1 mL aliquots were removed and added to 0.2 mL ACN. The resulting mixtures were vortexed (30 s), centrifuged (10 min, 4° C.) filtered and analysed by HPLC (C8, 3.9×150 mm, 5 μm, wavelength=243 nm, 10 μL injections, gradient: 40-80% ACN/H2O (1-7 min), 80% ACN (7-9 min), 80-40% ACN (9-11 min), 40% ACN (11-15 min), 10 mM ammonium formate, pH 7.40) which when compared against a standard (2 mg//mL) provided the concentration of free docetaxel in the sample.
row,Substance,Docetaxel release in plasma
1,BHALys[Lys]32[α-4-HSBA-Cp-DTX]32[ε-PEG1100]32 [Example 4 (c)],1.5 percentage of total docetaxel
2,BHALys[Lys]32[α-Glu-DTX]32[ε-PEG1100]32 [5 (b)],0 percentage of total docetaxel
3,BHALys[Lys]32[α-MIDA-DTX]32[ε-PEG1100]32 [6 (b)],7.5 percentage of total docetaxel
4,BHALys[Lys]32[α-PSSP-DTX]32[ε-PEG1100]32 [2 (b)],5 percentage of total docetaxel

# Same assay, conditions: 2.5 hours, 37° C.
row,Substance,Docetaxel release in plasma
1,BHALys[Lys]32[α-4-HSBA-Cp-DTX]32[ε-PEG1100]32 [Example 4 (c)],10 percentage of total docetaxel
2,BHALys[Lys]32[α-Glu-DTX]32[ε-PEG1100]32 [5 (b)],0 percentage of total docetaxel
3,BHALys[Lys]32[α-MIDA-DTX]32[ε-PEG1100]32 [6 (b)],9 percentage of total docetaxel
4,BHALys[Lys]32[α-PSSP-DTX]32[ε-PEG1100]32 [2 (b)],8 percentage of total docetaxel

# Same assay, conditions: 22 hours, 37° C.
row,Substance,Docetaxel release in plasma
1,BHALys[Lys]32[α-4-HSBA-Cp-DTX]32[ε-PEG1100]32 [Example 4 (c)],17.5 percentage of total docetaxel
2,BHALys[Lys]32[α-Glu-DTX]32[ε-PEG1100]32 [5 (b)],4 percentage of total docetaxel
3,BHALys[Lys]32[α-MIDA-DTX]32[ε-PEG1100]32 [6 (b)],23.5 percentage of total docetaxel
4,BHALys[Lys]32[α-PSSP-DTX]32[ε-PEG1100]32 [2 (b)],15.5 percentage of total docetaxel

# Tested on: not given
# Experiment: not given
# Settings: day 16, one day after final dose
# Procedure: The 20 mice were randomised into 5 groups of four mice (mean tumour volume ˜90 mm^3). Animals were eye bled in the morning for baseline blood cell counts and then drug dosing commenced later that day (day 1). […] A second eye bleed was performed on day 11 (Table 7 A-C). Mice were killed one day following the final drug dose (day 16).
row,Substance,Mean Tumour Weights (g) (sd)
1,BHALys[Lys]32[α-4-HSBA-Cp-DTX]32[ε-PEG1100]32 [Example 4 (c)],0.079

# Tested on: MCAS (Ovarian)
# Experiment: Cell growth inhibition SRB assay
# Assay type: cell-based
# Settings: not given
# Procedure: (§1) All solutions were prepared in saline (except docetaxel which was made in ethanol). All solutions were stored at −20° C. All values were based on the equivalent drug loading.
row,Substance,GI50 [nM]
1,BHALys[Lys]32[α-Glu-DTX]32[ε-PEG1100]32 [5 (b)],252

# Same assay, conditions: MCAS; 72 hours; equivalent drug loading; average of duplicate
row,Substance,GI50 [nM]
1,BHALys[Lys]32[α-4-HSBA-Cp-DTX]32[ε-PEG1100]32 [Example 4 (c)],20

# Tested on: A549 (Lung)
# Experiment: Cell growth inhibition SRB assay
# Assay type: cell-based
# Settings: not given
# Procedure: as §1
row,Substance,GI50 [nM]
1,BHALys[Lys]32[α-Glu-DTX]32[ε-PEG1100]32 [5 (b)],56.5

# Same assay, conditions: A549; 72 hours; equivalent drug loading; average of duplicate
row,Substance,GI50 [nM]
1,BHALys[Lys]32[α-4-HSBA-Cp-DTX]32[ε-PEG1100]32 [Example 4 (c)],8.5

# Tested on: HCT116 (Colon)
# Experiment: Cell growth inhibition SRB assay
# Assay type: cell-based
# Settings: not given
# Procedure: as §1
row,Substance,GI50 [nM]
1,BHALys[Lys]32[α-Glu-DTX]32[ε-PEG1100]32 [5 (b)],85.5

# Same assay, conditions: HCT116; 72 hours; equivalent drug loading; average of duplicate
row,Substance,GI50 [nM]
1,BHALys[Lys]32[α-4-HSBA-Cp-DTX]32[ε-PEG1100]32 [Example 4 (c)],9

# Tested on: HT29 (Colon)
# Experiment: Cell growth inhibition SRB assay
# Assay type: cell-based
# Settings: not given
# Procedure: as §1
row,Substance,GI50 [nM]
1,BHALys[Lys]32[α-Glu-DTX]32[ε-PEG1100]32 [5 (b)],97.5

# Same assay, conditions: HT29; 72 hours; equivalent drug loading; average of duplicate
row,Substance,GI50 [nM]
1,BHALys[Lys]32[α-4-HSBA-Cp-DTX]32[ε-PEG1100]32 [Example 4 (c)],9.5

# Tested on: H460 (Lung)
# Experiment: Cell growth inhibition SRB assay
# Assay type: cell-based
# Settings: not given
# Procedure: as §1
row,Substance,GI50 [nM]
1,BHALys[Lys]32[α-Glu-DTX]32[ε-PEG1100]32 [5 (b)],106
2,BHALys[Lys]32[α-MIDA-DTX]32[ε-PEG1100]32 [6 (b)],11

# Same assay, conditions: H460; 72 hours; equivalent drug loading; average of duplicate
row,Substance,GI50 [nM]
1,BHALys[Lys]32[α-4-HSBA-Cp-DTX]32[ε-PEG1100]32 [Example 4 (c)],11
2,BHALys[Lys]32[α-PSSP-DTX]32[ε-PEG1100]32 [2 (b)],73

# Tested on: MDA-MB-231 (Breast)
# Experiment: Cell growth inhibition SRB assay
# Assay type: cell-based
# Settings: not given
# Procedure: as §1
row,Substance,GI50 [nM]
1,BHALys[Lys]32[α-Glu-DTX]32[ε-PEG1100]32 [5 (b)],50.5

# Same assay, conditions: MDA-MB-231; 72 hours; equivalent drug loading; average of duplicate
row,Substance,GI50 [nM]
1,BHALys[Lys]32[α-4-HSBA-Cp-DTX]32[ε-PEG1100]32 [Example 4 (c)],6.5

# Tested on: ES2 (Ovarian)
# Experiment: Cell growth inhibition SRB assay
# Assay type: cell-based
# Settings: not given
# Procedure: as §1
row,Substance,GI50 [nM]
1,BHALys[Lys]32[α-Glu-DTX]32[ε-PEG1100]32 [5 (b)],116
2,BHALys[Lys]32[α-MIDA-DTX]32[ε-PEG1100]32 [6 (b)],12.5

# Same assay, conditions: ES2; 72 hours; equivalent drug loading; average of duplicate
row,Substance,GI50 [nM]
1,BHALys[Lys]32[α-4-HSBA-Cp-DTX]32[ε-PEG1100]32 [Example 4 (c)],8.6
2,BHALys[Lys]32[α-PSSP-DTX]32[ε-PEG1100]32 [2 (b)],116

# Tested on: DU145 (Prostate)
# Experiment: Cell growth inhibition SRB assay
# Assay type: cell-based
# Settings: not given
# Procedure: as §1
row,Substance,GI50 [nM]
1,BHALys[Lys]32[α-Glu-DTX]32[ε-PEG1100]32 [5 (b)],148

# Same assay, conditions: DU145; 72 hours; equivalent drug loading; average of duplicate
row,Substance,GI50 [nM]
1,BHALys[Lys]32[α-4-HSBA-Cp-DTX]32[ε-PEG1100]32 [Example 4 (c)],12

# Tested on: A2058 (Melanoma)
# Experiment: Cell growth inhibition SRB assay
# Assay type: cell-based
# Settings: not given
# Procedure: as §1
row,Substance,GI50 [nM]
1,BHALys[Lys]32[α-Glu-DTX]32[ε-PEG1100]32 [5 (b)],71.5

# Same assay, conditions: A2058; 72 hours; equivalent drug loading; average of duplicate
row,Substance,GI50 [nM]
1,BHALys[Lys]32[α-4-HSBA-Cp-DTX]32[ε-PEG1100]32 [Example 4 (c)],8

# Tested on: PC-3 (Prostate)
# Experiment: Cell growth inhibition SRB assay
# Assay type: cell-based
# Settings: not given
# Procedure: as §1
row,Substance,GI50 [nM]
1,BHALys[Lys]32[α-Glu-DTX]32[ε-PEG1100]32 [5 (b)],160
2,BHALys[Lys]32[α-MIDA-DTX]32[ε-PEG1100]32 [6 (b)],10.5

# Same assay, conditions: PC-3; 72 hours; equivalent drug loading; average of duplicate
row,Substance,GI50 [nM]
1,BHALys[Lys]32[α-4-HSBA-Cp-DTX]32[ε-PEG1100]32 [Example 4 (c)],21.5
2,BHALys[Lys]32[α-PSSP-DTX]32[ε-PEG1100]32 [2 (b)],110
